According to article PMC11059090:

Legend:
[1] = system: ALEXA-594-labeled rabbit anti-human IgG Fc-specific monoclonal (594-RAH) (rabbit); assay: FRET titration; settings: apparent Kd, ITC: PBS (10 mM phosphate, 2.7 mM KCl, 137 mM NaCl, pH 7.4), 25 C, FRET: Ex 550 nm, Em 620/670 nm, titration buffer not stated
[2] = system: rabbit anti-human IgG Fc-specific monoclonal (RAH) (rabbit); assay: ITC; settings: unlabeled IgG; 80 uM aptamer into 2.5 uM IgG; ITC: PBS (10 mM phosphate, 2.7 mM KCl, 137 mM NaCl, pH 7.4), 25 C; FRET: Ex 550 nm, Em 620/670 nm, titration buffer not stated
[3] = system: purified whole IgG from rabbit serum (polyclonal) (rabbit); assay: ITC; settings: unlabeled IgG; 80 uM aptamer into 2.5 uM IgG; ITC: PBS (10 mM phosphate, 2.7 mM KCl, 137 mM NaCl, pH 7.4), 25 C; FRET: Ex 550 nm, Em 620/670 nm, titration buffer not stated

CCAACCACACATCCTTCCATCGACATGGACCCACCGTTCC [AptaShield DNA aptamer]
Kd ([1]; RAH-594 titrated into 200 nM aptamer): 95 nM
Kd ([1]; aptamer titrated into 200 nM RAH-594): 44.5 nM
Kd [2]: 224 nM
Kd [3]: 890 nM
